# In the RNAGym collection of RNA variant scans (doi:10.7554/elife.80360):
# B1: Hammerhead Ribozyme (parent)
# chain: ACCGGAUGUGCUUUCCGGUCUGAUGAGUCCGUGAGGACGAAACAG
# Variants of: B1
# Test: self-cleavage, relative activity (ratio to wild type); higher = more cleavage; co-transcriptional
row,Variant,self-cleavage
1,ACCGGAUGUGCUUUCCGGUCUGAUGAGUCCGCGAGGACGUAACAG,0.306
2,ACCGGAUGAGCUUUCCGGUCUGAUGAGUCCGUGAGGACUAAACAG,0.422
3,ACCGGAUGUGCUUUCCUGUCUGAUGAGUCCGUUAGGACGAAACAG,0.9
4,ACCGGAUGUGCUUUCCGGUCUGAUGAGUGCGUGAGGUCGAAACAG,0.587
5,ACCGGAUGUCCUUUCCGGUAUGAUGAGUCCGUGAGGACGAAACAG,0.336
6,ACCGGAUAUGUUUUCCGGUCUGAUGAGUCCGUGAGGACGAAACAG,0.744
7,ACCGGAGGUGCUUUCCGGUCCGAUGAGUCCGUGAGGACGAAACAG,0.641
8,ACCGGAUGUGCUUGCCAGUCUGAUGAGUCCGUGAGGACGAAACAG,0.544
9,ACCGGAUGCGCUUUCCGGUCUGAUGAGUCCGUGAGGACGACACAG,0.407
10,ACCGGAUGUGCUUUCCGGCCUCAUGAGUCCGUGAGGACGAAACAG,0.323
11,ACCGGAUGUGCUUUCCAGUCUGAUGAGUCCGUGAGGACGAAACAC,0.385
12,ACCGGAUGUGCUCUCCGGUCUGAUGAGUCCGUGAGGAUGAAACAG,1.11
13,ACCGGAUGUGCUUUCCGGUCUGAUGAGUCCGUGAGCACGAAACUG,0.296
14,ACCGGAUGGGCUUGCCGGUCUGAUGAGUCCGUGAGGACGAAACAG,0.991
15,ACCGAAUGUGCUUACCGGUCUGAUGAGUCCGUGAGGACGAAACAG,1.58
16,ACCGGAUGUGCUUUCCGGUCUUCUGAGUCCGUGAGGACGAAACAG,0.284
17,ACCGGAUGUGCUUUACGAUCUGAUGAGUCCGUGAGGACGAAACAG,0.323
18,ACCGGAUGUGCUUUCCGGUGUGAUGAGUCCGUGAGGACGAAACAC,0.302
19,ACCGGAUGUGCUUUCCGGUCUGAUGACUCCGUGAGGACCAAACAG,0.261

row,Variant,self-cleavage
1,AACGGAUGUGCUUUCCGGUCUGUUGAGUCCGUGAGGACGAAACAG,0.33
2,ACCGGAUGUGCUUUCCGGUCUGAUGACUCGGUGAGGACGAAACAG,0.459
3,ACCGGAUGUGCUUUCCGGUCUGAUGAGUCCGUGCGGACGAAAGAG,0.327
4,ACCGGAUGUGCUUUCCGGUCUGAUGAGUUCGUGAGGGCGAAACAG,0.751
5,ACCGGAUGUGCUUUCCGGUCUGAUGAGUCCGUGAGCCCGAAACAG,0.296
6,GCCGGAUGUGCUUUCCGGUCUGAUGAGUCCGUGAGGACGAAACAU,1.13
7,ACCGGAUGUGCUUUCCGGUUUGAUGAGUCCGUGAGGACGAAGCAG,0.258
8,ACCGGAUGUGGUUUCCGGUCUGAUGAGUCCGUGAGGACCAAACAG,0.541
9,ACCGGAUGUGCUUUCGGGUCUGAUGAGUCCGUGAGGACGGAACAG,0.431
10,ACCGGAUGUGCUUACCGGUCUGAUGAGUCCGUAAGGACGAAACAG,0.751
11,ACCGGAUGUGCUUUCCGGUCUGAUGAGCCCGUGAGGACGUAACAG,0.307
12,ACCGGAUGAGCUUUCCGGUCUGAUGAGUCCUUGAGGACGAAACAG,1.3
13,AGCGUAUGUGCUUUCCGGUCUGAUGAGUCCGUGAGGACGAAACAG,0.296
14,ACCGGAUGUGCUUUCCGGUCUGAUGAGUCCGUGAGCAGGAAACAG,0.369
15,ACCGUAUGUGCUUUCCGGUCUGAUGAGUCCGUGAGGAAGAAACAG,0.431
16,ACCGGAUGUGCCUUCCGGUCUGAUGAGUCGGUGAGGACGAAACAG,0.84
17,ACCGGCUGUGCUUUCCGGUCUGAUGAGUCCGUGAGGUCGAAACAG,0.449
18,ACCGGAUGUGCUUUCCGGUCUGAUGAGUCCGUGAGGACGAGAGAG,0.346
19,ACCGGAUGUGCUAUCCGGUCAGAUGAGUCCGUGAGGACGAAACAG,0.707

row,Variant,self-cleavage
1,ACCGGAUGUGCUUUCCGGUCUUAUGAGUCCGUGAGGACGAAAAAG,0.293
2,ACCGGAUGUGCUUUCCGCUCUGAUGAGUCCGUCAGGACGAAACAG,0.616
3,ACCGGAAGUGCUUUCCGGUCUGAUGAGUCCGUGAGGAAGAAACAG,0.49
4,ACCGGAUGUGCUUUCCGGUCUGAUGAGCCCGUGAGCACGAAACAG,0.297
5,ACCGGAUGUGCGUUCCGGUCUGAUGAGUCCGAGAGGACGAAACAG,0.696
6,ACCGGAUGUGCUUUCCGGUCUGAUGAGUCCGUGAGGCCCAAACAG,0.316
7,ACCGGAUGUGCUCGCCGGUCUGAUGAGUCCGUGAGGACGAAACAG,0.364
8,AUCGGAUGUGCUUUCAGGUCUGAUGAGUCCGUGAGGACGAAACAG,0.367
9,ACCGGAUGUGCUUUACGGGCUGAUGAGUCCGUGAGGACGAAACAG,0.34
10,ACCGGAUGUGCUUUCCGGUCGGAUGCGUCCGUGAGGACGAAACAG,0.237
11,ACCGGAUGUGCUUUCGGGUCUGAUGAGUCCGUGAGGAUGAAACAG,0.619
12,ACCGGAUGUCCUUUCUGGUCUGAUGAGUCCGUGAGGACGAAACAG,0.964
13,ACCGGAUGAGCUUUCCGGUCUGAUGAGUCCGUGAGCACGAAACAG,0.573
14,ACCGGAUGUGCUUACCGGUCUGAUGAGUCCGUGAGCACGAAACAG,0.319
15,ACCGGAUGUGCUUACCGGUCUGAUGAGUCCGUGAGAACGAAACAG,0.485
16,ACCGGAUGUGCUUUCCGGUCUGAUAAGUCCUUGAGGACGAAACAG,0.416
17,ACCGGAUGUGCUUUCCGGUCUGAUGAGUCCGUGAGGACGAAACUC,1.86
18,ACCUGAUGUGCUUUCCGGUCUGCUGAGUCCGUGAGGACGAAACAG,0.257
19,ACCGGAUGUGCUUUCCCGUCUGAUGAGUCCGUGAGGACAAAACAG,0.342
